This is an account of results in US20250179196A1 (Janssen / Centocor, published 2025).

The target of assay [1] is T1, human IL-23R expressed on the cell surface of stably transfected iLite and HEK cell lines (human, UniProt Q5VWK5 24-629).
T1 construct: whole, on cells; Same receptor on two transfected cell lines; the cell line is named under assay; also called human IL-23R iLite cells; human IL-23R HEK cells
T1 sequence (looked up): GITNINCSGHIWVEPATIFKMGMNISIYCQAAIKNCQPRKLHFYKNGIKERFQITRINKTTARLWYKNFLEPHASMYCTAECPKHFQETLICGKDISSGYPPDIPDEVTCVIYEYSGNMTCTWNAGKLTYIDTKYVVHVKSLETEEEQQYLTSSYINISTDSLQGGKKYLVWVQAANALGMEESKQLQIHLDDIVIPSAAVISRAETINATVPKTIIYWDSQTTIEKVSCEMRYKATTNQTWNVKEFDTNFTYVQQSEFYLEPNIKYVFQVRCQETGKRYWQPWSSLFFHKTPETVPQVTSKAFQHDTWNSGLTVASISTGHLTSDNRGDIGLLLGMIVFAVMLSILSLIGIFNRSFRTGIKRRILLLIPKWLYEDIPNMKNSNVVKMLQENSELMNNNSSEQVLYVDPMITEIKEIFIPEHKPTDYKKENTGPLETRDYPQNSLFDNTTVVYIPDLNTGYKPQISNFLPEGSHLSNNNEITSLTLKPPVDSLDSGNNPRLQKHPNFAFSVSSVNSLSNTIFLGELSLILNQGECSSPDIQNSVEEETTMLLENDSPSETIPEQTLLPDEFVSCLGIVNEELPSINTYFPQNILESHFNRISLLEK
Put plainly: flow cytometry on human IL-23R HEK cells, Expt E (11-point, 384well). An outline of the steps: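 Antibody bound to HEK-IL-23R cells 30 min at 37 °C over 11 concentrations; after washes, Sytox Green added and cells run on iQue. Geometric MFI of 647 detection antibody on single viable cells fitted by variable-slope dose–response.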
Background: In flow cytometry, cells or beads pass a laser one at a time.

For assay [2], the target named is T1, human IL-23R expressed on the cell …. Put plainly: flow cytometry on human IL-23R HEK cells, Expt D (8-point, 96well). An outline of the steps: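 Serially diluted IL-23R mAbs bound to mixed HEK-IL-23R and parental HEK cells for 30 min at 37 °C, in duplicate. After washes, 647 detection antibody geometric MFI measured on single viable (Sytox Green-negative) cells and fitted to a variable-slope dose-response against log mAb concentration.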

Assay [3] deals with T2, rat IL-23R extracellular domain (ECD) protein (rat).
T2 construct: also called rat IL-23R ECD; F1LX96 amino acids 24-354
T2 chain: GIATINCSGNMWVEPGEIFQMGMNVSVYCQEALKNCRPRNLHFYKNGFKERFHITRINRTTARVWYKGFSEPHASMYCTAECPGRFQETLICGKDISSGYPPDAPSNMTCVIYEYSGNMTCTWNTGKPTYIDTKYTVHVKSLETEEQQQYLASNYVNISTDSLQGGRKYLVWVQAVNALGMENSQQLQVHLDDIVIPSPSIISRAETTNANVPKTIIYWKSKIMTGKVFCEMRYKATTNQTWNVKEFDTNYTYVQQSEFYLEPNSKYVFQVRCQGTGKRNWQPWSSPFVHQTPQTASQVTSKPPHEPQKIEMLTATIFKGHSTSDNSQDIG
Nature of the assay: SPR Biacore 8K, supernatant. As to the method: Affinity by SPR using Biacore 8K. Affinity measurements using Surface Plasmon Resonance (SPR) were performed using a Biacore 8K system (Cytiva). […] Approximately 9000-10000 RU (response units) of mAbs were immobilized. The kinetic experiments were performed at 25° C. in running buffer 1× of (HBS-P+ Buffer 10× (Cytiva #BR100671)+100 μg/ml BSA). To perform kinetic experiments, approximately 150 RU of mAbs were captured followed by injections of human IL-23R or rat IL-23R at concentrations ranging from 0.8 nM to 500 nM (in a 5-fold serial dilution). The association phase was monitored for 3 minutes at 50 μL/min, then followed by 30 minutes of buffer flow (dissociation phase). […] The collected data were processed using Biacore insight Evaluation software (Version 3.0.12.15655). The kinetic analysis of the data was performed using a Langmuir 1:1 binding model. The result for each mAb was reported in the format of Ka (On-rate), Kd (Off-rate) and KD (equilibrium dissociation constant).
(In general: Surface plasmon resonance follows binding to a sensor surface in real time, without labels.)

Where a chain is given by its changes, count along the chain named.

B1: I23RB162 (antibody, mouse IgG2a, kappa, V domains shown)
VH: EFQLQQSGPELVKPGASVKMSCKASGYTFTNYVMHWVKQKPGQGLEWIGYINPYNDGTKYNEKFKGKATLTSDKSSSTAYMELSSLTSEDSAVYYCARSRTGTRWYFDVWGAGTTVTVSS
VL: DIVMTQSQKFMSTSVGDRVSVTCKASQNVGTNVAWYQQKPGQSPKALIYSASYRYSGVPDRFTGSGSGTDFTLTISNVQSEDLAEYFCQQYNSYPFTFGSGTKLEIKR
notes: immunization; mouse IgG2a/kappa
What is called EC50 is the concentration needed to bring the measured effect to its halfway point. Higher therefore signals weaker potency. B1: in assay [1], the EC50 was 2.8 nM and the “MFI (6.4 nM)” value was found to be 269000 MFI. A half-maximal response in assay [2] (EC50) required 0.1 nM.

B2: I23RB168 (antibody, mouse IgG2a, kappa, V domains shown)
VH: QIQLVQSGPELVKPGASVKMSCKTSGYTFTDYYINWVKQRPGQGLEWIGWIYPAINNTNYNEKFKGKATLTVDTSSRTAYMQLNSLTSEDSAVYFCAISRKPYFDYWGQGTTLTVSS
VL: DIQMTQSSSSFSVSLGDRVTITCKASEDLYNRLAWYQQKPGNAPRLLISGATSLGTGVLSRFSGSGSGKDYTLSITSLQTEDVATYYCQQYWSIPWTFGAGTKLELKR
notes: as for B1
On to B2, for which the EC50 in assay [1] was 22.1 nM; in assay [2], 3.4 nM. Moreover, the “MFI (6.4 nM)” value in assay [1] worked out at 73000 MFI.

B3: I23RB166 (antibody, mouse IgG2a, kappa, V domains shown)
VH: DVQLQESGPGLVKPSQTVSLTCTVTGYSITNGNHWWNWIRQVSGSKLEWIGYIRSSGSTDSNPSLKSRISITRDTSKNQLFLQLNSVTAEDIATYYCARERLRLRWSYFDYWGQGTTLTVSS
VL: DIVMTQSHKFMSTSVGARVSITCKASQDVSTAVAWYQQKPGQSPKLLIYSASYRYTGVPDRFTGSGSGTDFTFTISSVQAEDLAVYYCQQHYSTPRTFGGGTKLEIKR
notes: as for B1
Take B3: in assay [1], the response was half-maximal at 11.6 nM (EC50) and the “MFI (6.4 nM)” value came out at 198000 MFI. This molecule gave an EC50 in assay [2] of 0.3 nM.

B4: I23RB156 (antibody, mouse IgG2a, kappa, V domains shown)
VH: QVQLKESGPGLVAPSQSLSITCTVSGFSLTSYAINWVRQPPGKGLEWLGVIWTGGGTNYNSVFKSRLSISKDNSKSQIFLKMISLQTDDTARYYCARNRDYSNYRWYFDVWGAGTTLTVSS
VL: B3 VL with A17D, Q42R, S52F, S76G, T94I, R96L, G100A, I106L
notes: as for B1
Consider B4, for which, in assay [1], the EC50 turned out to be 8.9 nM and the “MFI (6.4 nM)” value stood at 174000 MFI. The molecule also showed an EC50 in assay [2] of 0.4 nM.

B5: I23RB148 (antibody, mouse IgG2a, kappa, V domains shown)
VH: DVQLQESGPDLVKPSQSLSLTCTVTGYSITSGYNWHWIRQFPGNKLEWMGYIHSSGTTNYSPSLRSRLSITRDTSKNQFFLQLNSVTTEDTATYYCTRQLGLKAMEYWGQGTTLTVSS
VL: B3 VL with A17D, I21L, D28E, S30R, S43P, S76I, S93T, R96Y, T97S, G100S
notes: as for B1
Regarding B5, in assay [1], the EC50 came out at 6 nM and the “MFI (6.4 nM)” value amounted to 203000 MFI. Also, the EC50 in assay [2] amounted to 0.3 nM.

B6: I23RB150 (antibody, mouse IgG2a, kappa, V domains shown)
VH: QIQLVQSGPELKKPGETVKISCKASAYTFTNYGMNWVKQAPGKGLKWMGWIKTNTGEPTYAEEFKGRFAFSLETSASTAYLQINNLKNEDTATYFCARSRQLGLRYYFDYWGQGTTLTVSS
VL: B3 VL with A17G, K45R, Y86F, R96Y, G100S, K103R
notes: as for B1
For the molecule B6, in assay [1], the EC50 was 16.2 nM and the “MFI (6.4 nM)” value came to 103000 MFI. This molecule also gave an EC50 in assay [2] of 0.8 nM.

B7: I23RB160 (antibody, mouse IgG2a, kappa, V domains shown)
VH: QVQLKESGPDLVKPSQSLSLTCTVTGYSITSGYNWHWIRQFPGNKLEWMGYIHYSSGTIYNPSLKSRISITRDTSKNQFFLQLNSVTTEDTGTYYCARQLGLKAMDYWGQGTSVTVSS
VL: B3 VL with A17D, S30R, Y49H, A80V, S93T, R96Y, G100S
notes: as for B1
In the case of B7, in assay [1], a half-maximal response (EC50) required 5.6 nM and the “MFI (6.4 nM)” value worked out at 185000 MFI. Moreover, in assay [2], the midpoint of the response, the EC50, lay at 0.4 nM.

B8: I23RB5 (antibody, mouse IgG2a, kappa, V domains shown)
VH: QVQLVQSGAEVKKPGSSVKVSCKASGGTFSSYAISWVRQAPGQGLEWMGGIIPIFGTANYAQKFQGRVTITADESTSTAYMELSSLRSEDTAVYYCARDSYYSTVTYYYFDYWGQGTLVTVSS
VL: not shown
notes: phage display; human V regions, mouse IgG2a/kappa constant regions; also called negative control mAb
On to B8, for which the binding result in assay [3] was “no binding (tested: 500 nM)”.

B9: I23RB144 (antibody, mouse IgG2a, kappa, V domains shown)
VH: EVQLQQSGPELVKPGASVKMSCKASGYTFTSYIIHWVKQKPGQGLEWIGYIDPYNDDTKYNEKFKGKATLTSDKSSSTAYMEFSSLTSEDSAVYYCARLGSINYYDGSYFDYWGQGTSVTVSS
VL: DIVMTQSPLTLSVIIGQSASISCKSSQSLLDSDGKTYLNWLLQRPGQSPKRLMYLVSKLDSGVPDRFTGSGSGTDFTLKISRVEAEDLGVYYCWQGIHFPLTFGSGTRLEIKR
notes: as for B1
For the molecule B9, in assay [1], the EC50 is above 50 nM and the “MFI (6.4 nM)” value stood at 46200 MFI. This molecule showed an EC50 in assay [2] of 13.4 nM.

B10: I23RB169 (antibody, mouse IgG2a, kappa, V domains shown)
VH: QIQLVQSGPELKKPGETVKISCKASGYTFTTVGMQWVQKMPGKGFKWIGWINTHSGEPKYTDDFKGRFAFSLETSASTAYLQISNLKSEDTATYFCARSSALTGAFAYWGQGTLVTVSS
VL: DIKMTQSPASLAVSLGQRATISCRASKSVSTSDYSYMHWYQQKPGQPPKLLIYLASNLESGVPARFSGSGSGTDFTLNIHPVEEEDAATYYCQHSRELPRTFGAGTKLELKR
notes: as for B1
Turning to B10, in assay [1], the EC50 was 15.4 nM and the “MFI (6.4 nM)” value came to 132000 MFI. In addition, it took 0.7 nM to reach a half-maximal effect in assay [2] (EC50).

B11: I23RB165 (antibody, mouse IgG2a, kappa, V domains shown)
VH: EVQLQQSGAELVRPGASVKLSCTASGFNIKDSLMHWVKQRPEQGLEWIGWIDPEDGKTKYAPKFQDKATITADTSSNTAYLQLSSLTSEDTAIYYCARREVLDYFDYWGQGTTLTVSS
VL: B10 VL with K3V, D33G, R100L, L110M
notes: as for B1
Take B11: in assay [1], the EC50 turned out to be 9.7 nM and the “MFI (6.4 nM)” value stood at 116000 MFI. The molecule further registered an EC50 in assay [2] of 0.6 nM.

B12: I23RB155 (antibody, mouse IgG2a, kappa, V domains shown)
VH: QVQLKESGPGLVKPSQSLSLTCSVTGYSITSGHSWNWIRQFPGNKLEWMGYISYDGTNDYNPSLKNRISITRDTSKNQFFLNLNSVTTEDTVTYYCARGGGYYGGTYRVFADWGQGTTLTVSS
VL: QIVLSQSPASLAVSLGQRATISCRTSESVDTYGNSFIYWYQQKPGQPPKLLIYRASNLESGIPARFSGSGSRTDFTLTINPVEADDVATYYCQQGNKDPYTFGSGTKLEMKR
notes: as for B1
For B12, the EC50 in assay [1] worked out at 10.1 nM; in assay [2] it was 0.9 nM. In addition, the “MFI (6.4 nM)” value in assay [1] was 177000 MFI.

B13: I23RB173 (antibody, mouse IgG2a, kappa, V domains shown)
VH: DVQLQESGPGLVKPSQSLSLTCSVTGYSITSGYYWNWIRQFPGNKLEWMGYISYDGGNNYNPSLKNRISITRDTSKNQFFLKLNSVTTEDTATYYCARDAGLLPYYAMDYWGQGTTLTVSS
VL: DIKMTQSPAIMSASPGEKVTITCSASSSVSYMHWFQQKPGTSPKLWIYSTSNLASGVPARFSGSGSGTSYSLTISRMEAEDAATYYCQQRSSYPLTFGDGTKLEMKR
notes: as for B1
Regarding B13, in assay [1], a half-maximal effect (EC50) was put at 7.4 nM and the “MFI (6.4 nM)” value turned out to be 100000 MFI. For the same molecule, in assay [2], the EC50 turned out to be 0.4 nM.
